Reporter activity, fold above background (within 3 hour of 6 Gy x-rays) data for one substance are collected here from PMC3117017.

This assay has as its target Nluc2-H2AX (N-terminal fragment of firefly luciferase 2 fused to the N-terminus of histone H2AX) (UniProt P16104). The assay can be described thus: split reporter.

For “MDC1 BRCT domain fused to the C-terminal fragment of firefly luciferase 2 (Cluc) (domain or fragment)”, the reporter activity, fold above background (within 3 hour of 6 Gy x-rays) is 5 fold.
